In publication PMC9482650, “Quantitative fragmentomics allow affinity mapping of interactomes” (Nature Communications, 2022):

T1: SNTA1, Q13424
T1 sequence (Q13424 82-180, limits assumed, looked up): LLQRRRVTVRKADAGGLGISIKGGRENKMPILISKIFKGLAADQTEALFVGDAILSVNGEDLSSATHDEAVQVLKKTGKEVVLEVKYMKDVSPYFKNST

T2: GRIP1_2, Q9Y3R0
T2 sequence (Q9Y3R0 145-248, limits assumed, looked up): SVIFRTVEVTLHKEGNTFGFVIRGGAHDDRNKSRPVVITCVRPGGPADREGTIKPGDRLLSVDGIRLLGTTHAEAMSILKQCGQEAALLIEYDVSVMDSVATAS

T3: TX1BP3, O14907
T3 sequence (O14907 10-122, limits assumed, looked up): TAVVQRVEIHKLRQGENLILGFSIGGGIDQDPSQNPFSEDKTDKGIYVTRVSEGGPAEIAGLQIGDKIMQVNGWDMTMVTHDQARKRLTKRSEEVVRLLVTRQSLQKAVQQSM

T4: LIN7C, Q9NUP9
T4 sequence (Q9NUP9 88-185, limits assumed, looked up): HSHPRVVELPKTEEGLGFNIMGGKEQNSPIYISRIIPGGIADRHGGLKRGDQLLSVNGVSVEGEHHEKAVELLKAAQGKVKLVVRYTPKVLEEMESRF

T5: RHPN1, Q8TCX5
T5 sequence (Q8TCX5 508-602, limits assumed, looked up): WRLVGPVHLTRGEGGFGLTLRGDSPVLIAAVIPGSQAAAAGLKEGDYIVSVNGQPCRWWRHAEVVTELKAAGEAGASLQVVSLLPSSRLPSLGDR

T6: RAPGEF6, Q8TEU7
T6 sequence (Q8TEU7 525-625, limits assumed, looked up): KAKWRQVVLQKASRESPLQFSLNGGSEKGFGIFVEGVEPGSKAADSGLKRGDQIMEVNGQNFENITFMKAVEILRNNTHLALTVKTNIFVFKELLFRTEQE

T7: APBA1_1, Q02410
T7 sequence (Q02410 651-752, limits assumed, looked up): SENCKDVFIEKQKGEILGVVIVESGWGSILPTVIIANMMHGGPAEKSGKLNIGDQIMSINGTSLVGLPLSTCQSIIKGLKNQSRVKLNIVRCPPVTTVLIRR

T8: SNTB1, Q13884
T8 sequence (Q13884 107-205, limits assumed, looked up): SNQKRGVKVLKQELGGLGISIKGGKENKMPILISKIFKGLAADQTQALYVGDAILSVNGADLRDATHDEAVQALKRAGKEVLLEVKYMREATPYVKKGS

T9: DVL3, Q92997
T9 sequence (Q92997 244-331, limits assumed, looked up): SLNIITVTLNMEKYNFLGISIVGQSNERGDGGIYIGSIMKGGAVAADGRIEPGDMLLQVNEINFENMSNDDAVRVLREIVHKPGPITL

T10: SNTG1, Q9NSN8
T10 sequence (Q9NSN8 52-150, limits assumed, looked up): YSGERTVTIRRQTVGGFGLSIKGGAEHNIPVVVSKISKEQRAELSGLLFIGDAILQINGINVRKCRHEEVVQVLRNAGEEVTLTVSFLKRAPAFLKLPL

T11: HTRA4, P83105
T11 sequence (P83105 378-476, limits assumed, looked up): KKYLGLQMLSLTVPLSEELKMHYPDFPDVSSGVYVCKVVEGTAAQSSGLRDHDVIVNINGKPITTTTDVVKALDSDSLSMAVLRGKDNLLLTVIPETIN


target: Inadl_8, Q8NI35; assay: holdup assay; parameters: key: below the threshold = too weak to quantify, mostly under pKd 3.1 to 4; details: plain residues with an end cap or a label only (N-terminal biotin on a linker: ttds)
Sequence (Q8NI35 1425-1530): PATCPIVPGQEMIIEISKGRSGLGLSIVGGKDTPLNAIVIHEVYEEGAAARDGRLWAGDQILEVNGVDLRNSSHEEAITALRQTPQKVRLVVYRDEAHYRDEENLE

Binder | pKd
CNTVTVETVV [MAS1, P04201] | below the threshold

target: T1, SNTA1, Q13424; assay: holdup assay; parameters: key: below the threshold = too weak to quantify, mostly under pKd 3.1 to 4; details: plain residues with an end cap or a label only (N-terminal biotin on a linker: ttds)

Binder | pKd
CNTVTVETVV [MAS1, P04201] | 4.34

target: LIMK2, P53671; assay: holdup assay; parameters: key: below the threshold = too weak to quantify, mostly under pKd 3.1 to 4; details: plain residues with an end cap or a label only (N-terminal biotin on a linker: ttds)
Sequence (P53671 143-248): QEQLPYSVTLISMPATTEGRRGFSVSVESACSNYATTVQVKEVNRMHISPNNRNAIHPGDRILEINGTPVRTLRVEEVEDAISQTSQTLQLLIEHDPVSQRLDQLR

Binder | pKd
CNTVTVETVV [MAS1, P04201] | 3.7

target: TJP2_1, Q9UDY2; assay: holdup assay; parameters: key: below the threshold = too weak to quantify, mostly under pKd 3.1 to 4; details: plain residues with an end cap or a label only (N-terminal biotin on a linker: ttds)
Sequence (Q9UDY2 24-128): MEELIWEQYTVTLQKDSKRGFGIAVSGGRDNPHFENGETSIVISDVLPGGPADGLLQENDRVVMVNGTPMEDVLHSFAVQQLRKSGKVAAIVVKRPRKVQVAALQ

Binder | pKd
CNTVTVETVV [MAS1, P04201] | below the threshold

target: MAGI2_5, Q86UL8; assay: holdup assay; parameters: key: below the threshold = too weak to quantify, mostly under pKd 3.1 to 4; details: plain residues with an end cap or a label only (N-terminal biotin on a linker: ttds)
Sequence (Q86UL8 915-1017): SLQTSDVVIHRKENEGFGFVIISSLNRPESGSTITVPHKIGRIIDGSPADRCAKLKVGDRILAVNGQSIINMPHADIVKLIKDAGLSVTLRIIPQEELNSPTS

Binder | pKd
CNTVTVETVV [MAS1, P04201] | 3.95

target: NHERF4_1, Q86UT5-2; assay: holdup assay; parameters: key: below the threshold = too weak to quantify, mostly under pKd 3.1 to 4; details: plain residues with an end cap or a label only (N-terminal biotin on a linker: ttds)
Sequence (Q86UT5 other isoform, or with tags, fused parts or gaps): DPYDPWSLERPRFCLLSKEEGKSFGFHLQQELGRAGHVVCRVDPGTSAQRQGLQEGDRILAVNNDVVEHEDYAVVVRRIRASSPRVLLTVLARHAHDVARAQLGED

Binder | pKd
CNTVTVETVV [MAS1, P04201] | below the threshold

target: T2, GRIP1_2, Q9Y3R0; assay: holdup assay; parameters: key: below the threshold = too weak to quantify, mostly under pKd 3.1 to 4; details: plain residues with an end cap or a label only (N-terminal biotin on a linker: ttds)

Binder | pKd
CNTVTVETVV [MAS1, P04201] | 3.61

target: T3, TX1BP3, O14907; assay: holdup assay; parameters: key: below the threshold = too weak to quantify, mostly under pKd 3.1 to 4; details: plain residues with an end cap or a label only (N-terminal biotin on a linker: ttds)

Binder | pKd
CNTVTVETVV [MAS1, P04201] | below the threshold

target: T4, LIN7C, Q9NUP9; assay: holdup assay; parameters: key: below the threshold = too weak to quantify, mostly under pKd 3.1 to 4; details: plain residues with an end cap or a label only (N-terminal biotin on a linker: ttds)

Binder | pKd
CNTVTVETVV [MAS1, P04201] | 3.64

target: T5, RHPN1, Q8TCX5; assay: holdup assay; parameters: key: below the threshold = too weak to quantify, mostly under pKd 3.1 to 4; details: plain residues with an end cap or a label only (N-terminal biotin on a linker: ttds)

Binder | pKd
CNTVTVETVV [MAS1, P04201] | 4.09

target: T6, RAPGEF6, Q8TEU7; assay: holdup assay; parameters: key: below the threshold = too weak to quantify, mostly under pKd 3.1 to 4; details: plain residues with an end cap or a label only (N-terminal biotin on a linker: ttds)

Binder | pKd
CNTVTVETVV [MAS1, P04201] | below the threshold

target: Inadl_10, Q8NI35; assay: holdup assay; parameters: key: below the threshold = too weak to quantify, mostly under pKd 3.1 to 4; details: plain residues with an end cap or a label only (N-terminal biotin on a linker: ttds)
Sequence (Q8NI35 1673-1763): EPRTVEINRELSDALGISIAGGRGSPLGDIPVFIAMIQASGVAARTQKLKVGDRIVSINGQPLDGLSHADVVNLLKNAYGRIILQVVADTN

Binder | pKd
CNTVTVETVV [MAS1, P04201] | below the threshold

target: T7, APBA1_1, Q02410; assay: holdup assay; parameters: key: below the threshold = too weak to quantify, mostly under pKd 3.1 to 4; details: plain residues with an end cap or a label only (N-terminal biotin on a linker: ttds)

Binder | pKd
CNTVTVETVV [MAS1, P04201] | below the threshold

target: T8, SNTB1, Q13884; assay: holdup assay; parameters: key: below the threshold = too weak to quantify, mostly under pKd 3.1 to 4; details: plain residues with an end cap or a label only (N-terminal biotin on a linker: ttds)

Binder | pKd
CNTVTVETVV [MAS1, P04201] | 4.29

target: MAST2, Q6P0Q8; assay: holdup assay; parameters: key: below the threshold = too weak to quantify, mostly under pKd 3.1 to 4; details: plain residues with an end cap or a label only (N-terminal biotin on a linker: ttds)
Sequence (Q6P0Q8 1099-1202): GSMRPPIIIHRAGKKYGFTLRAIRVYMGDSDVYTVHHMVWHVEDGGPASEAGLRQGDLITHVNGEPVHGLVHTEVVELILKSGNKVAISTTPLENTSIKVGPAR

Binder | pKd
CNTVTVETVV [MAS1, P04201] | 3.92

target: T9, DVL3, Q92997; assay: holdup assay; parameters: key: below the threshold = too weak to quantify, mostly under pKd 3.1 to 4; details: plain residues with an end cap or a label only (N-terminal biotin on a linker: ttds)

Binder | pKd
CNTVTVETVV [MAS1, P04201] | below the threshold

target: MAGI2_2, Q86UL8; assay: holdup assay; parameters: key: below the threshold = too weak to quantify, mostly under pKd 3.1 to 4; details: plain residues with an end cap or a label only (N-terminal biotin on a linker: ttds)
Sequence (Q86UL8 410-522): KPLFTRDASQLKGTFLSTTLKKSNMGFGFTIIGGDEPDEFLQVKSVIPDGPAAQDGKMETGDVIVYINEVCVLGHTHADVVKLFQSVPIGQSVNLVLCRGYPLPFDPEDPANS

Binder | pKd
CNTVTVETVV [MAS1, P04201] | below the threshold

target: ARHGEF12, Q9NZN5-2; assay: holdup assay; parameters: key: below the threshold = too weak to quantify, mostly under pKd 3.1 to 4; details: plain residues with an end cap or a label only (N-terminal biotin on a linker: ttds)
Sequence (Q9NZN5 other isoform, or with tags, fused parts or gaps): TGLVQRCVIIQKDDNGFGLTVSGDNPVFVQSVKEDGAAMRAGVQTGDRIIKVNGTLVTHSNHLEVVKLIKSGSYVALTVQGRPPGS

Binder | pKd
CNTVTVETVV [MAS1, P04201] | below the threshold

target: NHERF4_4, Q86UT5; assay: holdup assay; parameters: key: below the threshold = too weak to quantify, mostly under pKd 3.1 to 4; details: plain residues with an end cap or a label only (N-terminal biotin on a linker: ttds)
Sequence (Q86UT5 464-550): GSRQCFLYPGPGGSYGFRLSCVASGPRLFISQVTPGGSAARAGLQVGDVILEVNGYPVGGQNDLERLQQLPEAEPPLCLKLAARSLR

Binder | pKd
CNTVTVETVV [MAS1, P04201] | below the threshold

target: DLG5_1, Q8TDM6; assay: holdup assay; parameters: key: below the threshold = too weak to quantify, mostly under pKd 3.1 to 4; details: plain residues with an end cap or a label only (N-terminal biotin on a linker: ttds)
Sequence (Q8TDM6 617-713): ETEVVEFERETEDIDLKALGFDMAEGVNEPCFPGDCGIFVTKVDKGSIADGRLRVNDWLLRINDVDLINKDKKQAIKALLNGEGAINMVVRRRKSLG

Binder | pKd
CNTVTVETVV [MAS1, P04201] | below the threshold

target: DLG2_3, Q15700; assay: holdup assay; parameters: key: below the threshold = too weak to quantify, mostly under pKd 3.1 to 4; details: plain residues with an end cap or a label only (N-terminal biotin on a linker: ttds)

Binder | pKd
CNTVTVETVV [MAS1, P04201] | below the threshold

target: GRIP2_3, Q9C0E4; assay: holdup assay; parameters: key: below the threshold = too weak to quantify, mostly under pKd 3.1 to 4; details: plain residues with an end cap or a label only (N-terminal biotin on a linker: ttds)
Sequence (Q9C0E4 238-339): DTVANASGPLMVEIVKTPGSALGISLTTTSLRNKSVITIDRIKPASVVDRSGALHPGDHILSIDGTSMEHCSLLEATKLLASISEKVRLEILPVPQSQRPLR

Binder | pKd
CNTVTVETVV [MAS1, P04201] | below the threshold

target: IL16_1, Q14005; assay: holdup assay; parameters: key: below the threshold = too weak to quantify, mostly under pKd 3.1 to 4; details: plain residues with an end cap or a label only (N-terminal biotin on a linker: ttds)
Sequence (Q14005 210-306): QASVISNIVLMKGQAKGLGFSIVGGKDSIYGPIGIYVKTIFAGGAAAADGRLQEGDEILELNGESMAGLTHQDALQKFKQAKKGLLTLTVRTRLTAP

Binder | pKd
CNTVTVETVV [MAS1, P04201] | below the threshold

target: DLG1_2, Q12959; assay: holdup assay; parameters: key: below the threshold = too weak to quantify, mostly under pKd 3.1 to 4; details: plain residues with an end cap or a label only (N-terminal biotin on a linker: ttds)
Sequence (Q12959 314-412): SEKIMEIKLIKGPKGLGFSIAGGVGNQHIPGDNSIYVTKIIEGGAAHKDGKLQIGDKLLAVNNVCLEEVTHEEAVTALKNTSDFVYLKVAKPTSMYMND

Binder | pKd
CNTVTVETVV [MAS1, P04201] | 4.29

target: T10, SNTG1, Q9NSN8; assay: holdup assay; parameters: key: below the threshold = too weak to quantify, mostly under pKd 3.1 to 4; details: plain residues with an end cap or a label only (N-terminal biotin on a linker: ttds)

Binder | pKd
CNTVTVETVV [MAS1, P04201] | 3.86

target: T11, HTRA4, P83105; assay: holdup assay; parameters: key: below the threshold = too weak to quantify, mostly under pKd 3.1 to 4; details: plain residues with an end cap or a label only (N-terminal biotin on a linker: ttds)

Binder | pKd
CNTVTVETVV [MAS1, P04201] | below the threshold
